# According to patent US7993648:
# Target: CD70 (UniProt O55237)
# Assay: cell-based or functional assay
# Chain of UniProt O55237 (O55237 whole entry): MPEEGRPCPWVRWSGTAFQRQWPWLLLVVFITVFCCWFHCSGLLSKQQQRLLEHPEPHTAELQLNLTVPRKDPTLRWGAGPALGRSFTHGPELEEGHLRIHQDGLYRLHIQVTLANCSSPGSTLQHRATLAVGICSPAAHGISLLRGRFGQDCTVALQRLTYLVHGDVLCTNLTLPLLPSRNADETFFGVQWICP
substance,measurement,value
anti-CD70 blocking antibody FR70,CD8+ T cell response (tetramer staining of day 7 PBLs) in CD4-depleted IFNαβR KO mice,10 fold
